{"source": "paper PMC9486875", "target": "T1, GST-Mei2 RRM1-RRM2 (Schizosaccharomyces pombe, UniProt P08965 191-373)", "T1 sequence": "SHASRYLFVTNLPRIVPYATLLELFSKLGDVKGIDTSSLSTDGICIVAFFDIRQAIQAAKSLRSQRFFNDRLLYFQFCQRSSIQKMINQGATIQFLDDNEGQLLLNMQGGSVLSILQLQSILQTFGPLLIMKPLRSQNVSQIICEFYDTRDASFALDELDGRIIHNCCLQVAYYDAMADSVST", "test": "EMSA"}
{"binder": "GUCAAUCUUCUGCCGUCUUG (ssRNA)", "note": "[meiRNA 20mer]", "values": [{"measurement": "binding result", "value": "no binding"}]}
